The values that follow come from publication PMC10673843 (2023).

This assay addresses CD44 (isoform 4), Fc-fused (human). The assay is described as follows: SPR; apparent KD, dimeric Fc-fused target. On the technique in general: In SPR one partner is held on a chip, and binding of the other changes the refractive index at the surface.

Chain of CD44 (isoform 4), Fc-fused (human) (chain, as listed by the source): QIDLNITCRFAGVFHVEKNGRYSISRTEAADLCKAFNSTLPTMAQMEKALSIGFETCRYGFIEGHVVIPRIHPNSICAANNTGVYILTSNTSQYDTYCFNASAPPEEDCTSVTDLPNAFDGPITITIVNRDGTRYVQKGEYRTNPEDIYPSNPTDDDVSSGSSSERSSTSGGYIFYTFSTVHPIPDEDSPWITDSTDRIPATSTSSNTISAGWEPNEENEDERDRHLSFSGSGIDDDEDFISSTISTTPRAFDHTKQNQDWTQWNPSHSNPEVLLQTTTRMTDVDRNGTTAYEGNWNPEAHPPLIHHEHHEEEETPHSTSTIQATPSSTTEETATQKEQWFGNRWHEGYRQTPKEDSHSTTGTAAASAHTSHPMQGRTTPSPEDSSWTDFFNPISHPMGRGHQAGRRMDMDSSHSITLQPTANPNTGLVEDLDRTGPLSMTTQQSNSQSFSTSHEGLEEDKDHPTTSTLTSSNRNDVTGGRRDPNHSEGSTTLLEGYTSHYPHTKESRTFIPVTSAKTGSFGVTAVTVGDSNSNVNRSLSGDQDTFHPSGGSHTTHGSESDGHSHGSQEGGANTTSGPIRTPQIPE

B1: BIWA4 (bivatuzumab), as human IgG4 (antibody, V domains shown)
VH: EVQLVESGGGLVKPGGSLRLSCAASGFTFSSYDMSWVRQAPGKGLEWVSTISSGGSYTYYLDSIKGRFTISRDNAKNSLYLQMNSLRAEDTAVYYCARQGLDYWGRGTLVTVSS
VL: EIVLTQSPATLSLSPGERATLSCSASSSINYIYWYQQKPGQAPRLLIYLTSNLASGVPARFSGSGSGTDFTLTISSLEPEDFAVYYCLQWSSNPLTFGGGTKVEIK
On to B1, for which the Kd came to 48 nM.
